Common to all, as to test: pulldown
Conditions in all cases: 20 nM protein, 1.5 uM RNA pool; 20 mM HEPES pH 7.8, 70 mM KCl, 10 mM NaCl, 10% glycerol, 2 mM DTT, 0.1 ug/uL BSA; 30 min, 4 C

Series [1] addresses T1, C44B7.2 (Caenorhabditis elegans) (UniProt Q95QR5).
T1 sequence: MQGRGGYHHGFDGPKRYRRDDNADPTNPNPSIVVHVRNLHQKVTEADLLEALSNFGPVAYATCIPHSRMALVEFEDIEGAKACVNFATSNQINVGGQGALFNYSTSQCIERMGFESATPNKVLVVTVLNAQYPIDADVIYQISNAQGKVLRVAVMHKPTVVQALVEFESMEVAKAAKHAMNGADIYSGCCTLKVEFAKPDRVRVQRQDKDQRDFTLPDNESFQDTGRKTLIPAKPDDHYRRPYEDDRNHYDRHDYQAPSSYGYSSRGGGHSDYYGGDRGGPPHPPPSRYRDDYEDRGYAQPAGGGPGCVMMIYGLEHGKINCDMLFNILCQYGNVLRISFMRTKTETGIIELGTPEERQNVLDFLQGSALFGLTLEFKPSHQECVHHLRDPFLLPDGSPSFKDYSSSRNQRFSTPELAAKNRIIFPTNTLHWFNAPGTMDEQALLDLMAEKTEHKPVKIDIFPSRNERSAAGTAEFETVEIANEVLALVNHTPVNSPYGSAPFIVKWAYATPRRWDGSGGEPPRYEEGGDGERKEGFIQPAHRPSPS

Series [2] concerns the target T2, PK16782.1 E6F;T7E (Cannabis sativa) (UniProt A0A7J6H871).
T2 sequence: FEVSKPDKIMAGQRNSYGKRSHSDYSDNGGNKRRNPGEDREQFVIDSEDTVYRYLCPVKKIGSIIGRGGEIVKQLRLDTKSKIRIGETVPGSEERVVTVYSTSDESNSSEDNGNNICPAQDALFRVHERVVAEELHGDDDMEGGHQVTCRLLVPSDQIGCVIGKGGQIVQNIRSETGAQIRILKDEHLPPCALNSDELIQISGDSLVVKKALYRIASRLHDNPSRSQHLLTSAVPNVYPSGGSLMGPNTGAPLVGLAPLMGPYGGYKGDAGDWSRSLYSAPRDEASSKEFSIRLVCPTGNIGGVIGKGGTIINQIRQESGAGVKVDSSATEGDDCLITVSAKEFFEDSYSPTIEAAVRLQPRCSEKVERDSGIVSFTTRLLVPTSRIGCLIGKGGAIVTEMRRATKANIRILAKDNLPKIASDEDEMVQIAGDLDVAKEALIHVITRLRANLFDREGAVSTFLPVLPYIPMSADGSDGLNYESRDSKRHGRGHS

Series [3] concerns the target T3, cwf2 (Schizosaccharomyces pombe) (UniProt P87126).
T3 sequence: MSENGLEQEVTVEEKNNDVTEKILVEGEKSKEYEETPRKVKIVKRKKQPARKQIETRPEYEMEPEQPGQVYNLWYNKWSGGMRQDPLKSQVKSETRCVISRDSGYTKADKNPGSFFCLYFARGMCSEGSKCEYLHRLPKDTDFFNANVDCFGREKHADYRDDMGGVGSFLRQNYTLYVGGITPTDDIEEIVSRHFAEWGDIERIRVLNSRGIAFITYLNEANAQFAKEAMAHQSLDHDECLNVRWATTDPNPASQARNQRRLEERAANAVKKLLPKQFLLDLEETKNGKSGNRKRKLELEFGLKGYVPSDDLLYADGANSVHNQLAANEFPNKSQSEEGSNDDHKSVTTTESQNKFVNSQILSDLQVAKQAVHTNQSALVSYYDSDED

Series [4] has as its system T4, PK23097.1 (Cannabis sativa).
T4 sequence: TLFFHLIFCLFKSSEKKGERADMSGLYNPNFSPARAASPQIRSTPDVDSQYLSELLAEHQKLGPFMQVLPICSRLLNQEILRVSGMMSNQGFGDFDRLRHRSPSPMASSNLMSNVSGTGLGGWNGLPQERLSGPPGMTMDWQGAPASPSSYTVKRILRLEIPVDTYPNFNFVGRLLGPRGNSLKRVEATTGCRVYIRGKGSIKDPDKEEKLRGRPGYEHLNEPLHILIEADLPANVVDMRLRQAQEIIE

Series [5] deals with T5, B0280.17 (Caenorhabditis elegans) (UniProt Q2V4X2).
T5 sequence: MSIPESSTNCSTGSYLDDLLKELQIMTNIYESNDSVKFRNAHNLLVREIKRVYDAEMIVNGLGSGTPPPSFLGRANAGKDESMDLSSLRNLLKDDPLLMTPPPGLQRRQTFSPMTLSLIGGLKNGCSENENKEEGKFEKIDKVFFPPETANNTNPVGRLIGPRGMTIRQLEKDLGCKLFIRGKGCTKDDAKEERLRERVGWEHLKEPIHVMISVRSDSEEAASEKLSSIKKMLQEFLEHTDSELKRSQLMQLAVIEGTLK

For series [6], the target named is T6, rbm-28 (Caenorhabditis elegans) (UniProt O62325).
T6 sequence: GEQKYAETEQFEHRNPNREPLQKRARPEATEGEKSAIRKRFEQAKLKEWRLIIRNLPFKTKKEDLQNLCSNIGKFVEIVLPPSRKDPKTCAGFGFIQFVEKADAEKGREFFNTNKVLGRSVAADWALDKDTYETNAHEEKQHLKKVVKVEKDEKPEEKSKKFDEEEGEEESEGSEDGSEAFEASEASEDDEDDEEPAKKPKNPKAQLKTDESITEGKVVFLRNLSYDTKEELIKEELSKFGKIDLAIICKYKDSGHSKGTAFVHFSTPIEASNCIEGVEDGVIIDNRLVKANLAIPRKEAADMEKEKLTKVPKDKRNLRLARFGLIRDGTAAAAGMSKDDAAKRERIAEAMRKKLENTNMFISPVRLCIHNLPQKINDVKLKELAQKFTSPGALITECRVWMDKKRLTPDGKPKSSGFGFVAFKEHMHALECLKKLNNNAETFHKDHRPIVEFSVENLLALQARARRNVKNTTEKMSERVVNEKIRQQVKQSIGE

Series [7] concerns T7, PK27602.1 (Cannabis sativa).
T7 sequence: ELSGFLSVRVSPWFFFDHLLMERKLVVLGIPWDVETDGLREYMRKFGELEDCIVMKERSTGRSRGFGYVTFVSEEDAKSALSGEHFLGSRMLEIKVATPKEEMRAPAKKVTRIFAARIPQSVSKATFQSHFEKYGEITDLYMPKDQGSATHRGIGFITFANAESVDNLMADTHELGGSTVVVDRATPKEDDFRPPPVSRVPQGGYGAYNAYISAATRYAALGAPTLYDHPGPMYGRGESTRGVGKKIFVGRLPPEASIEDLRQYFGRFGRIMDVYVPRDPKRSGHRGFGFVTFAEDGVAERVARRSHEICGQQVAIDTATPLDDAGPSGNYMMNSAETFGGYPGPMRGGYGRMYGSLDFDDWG

The target of series [8] is T8, CBG03563 (Caenorhabditis briggsae) (UniProt A8WVC5).
T8 sequence: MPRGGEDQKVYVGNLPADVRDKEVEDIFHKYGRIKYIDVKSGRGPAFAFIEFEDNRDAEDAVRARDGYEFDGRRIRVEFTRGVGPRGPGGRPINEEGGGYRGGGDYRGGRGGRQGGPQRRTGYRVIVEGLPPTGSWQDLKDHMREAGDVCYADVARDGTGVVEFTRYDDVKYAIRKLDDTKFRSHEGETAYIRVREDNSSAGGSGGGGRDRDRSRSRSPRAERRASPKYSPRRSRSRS

Series [9] concerns the target T9, PK00513.1 (Cannabis sativa) (UniProt A0A7J6DZZ3).
T9 sequence: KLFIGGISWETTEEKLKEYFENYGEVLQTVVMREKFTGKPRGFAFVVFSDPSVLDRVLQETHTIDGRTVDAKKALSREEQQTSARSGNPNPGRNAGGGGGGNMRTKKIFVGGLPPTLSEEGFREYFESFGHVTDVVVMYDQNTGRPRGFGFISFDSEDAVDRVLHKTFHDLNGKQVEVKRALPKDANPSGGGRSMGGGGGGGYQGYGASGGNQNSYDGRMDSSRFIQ

In series [10] the target is T10, K07H8.9 (Caenorhabditis elegans) (UniProt O45180).
T10 sequence: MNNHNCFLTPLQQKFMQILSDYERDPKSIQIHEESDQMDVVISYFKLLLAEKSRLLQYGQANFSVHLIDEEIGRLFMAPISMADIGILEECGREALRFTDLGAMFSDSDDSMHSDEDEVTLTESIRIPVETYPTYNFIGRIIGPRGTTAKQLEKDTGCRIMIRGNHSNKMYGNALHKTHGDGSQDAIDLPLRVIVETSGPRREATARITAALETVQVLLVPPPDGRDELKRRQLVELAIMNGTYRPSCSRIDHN

The target in series [11] is T11, PK05405.1 I85V;D92G;E327K;K328E (Cannabis sativa) (UniProt A0A7J6HVI1).
T11 sequence: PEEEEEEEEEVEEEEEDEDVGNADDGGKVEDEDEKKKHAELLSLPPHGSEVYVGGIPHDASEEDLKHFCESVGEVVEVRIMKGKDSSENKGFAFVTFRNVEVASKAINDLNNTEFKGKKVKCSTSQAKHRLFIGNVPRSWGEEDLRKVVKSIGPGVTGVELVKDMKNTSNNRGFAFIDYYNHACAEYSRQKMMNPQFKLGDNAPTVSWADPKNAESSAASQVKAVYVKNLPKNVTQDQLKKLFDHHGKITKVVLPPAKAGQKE

The target in series [12] is T12, PK00840.1 S382G (Cannabis sativa) (UniProt A0A803NL23).
T12 sequence: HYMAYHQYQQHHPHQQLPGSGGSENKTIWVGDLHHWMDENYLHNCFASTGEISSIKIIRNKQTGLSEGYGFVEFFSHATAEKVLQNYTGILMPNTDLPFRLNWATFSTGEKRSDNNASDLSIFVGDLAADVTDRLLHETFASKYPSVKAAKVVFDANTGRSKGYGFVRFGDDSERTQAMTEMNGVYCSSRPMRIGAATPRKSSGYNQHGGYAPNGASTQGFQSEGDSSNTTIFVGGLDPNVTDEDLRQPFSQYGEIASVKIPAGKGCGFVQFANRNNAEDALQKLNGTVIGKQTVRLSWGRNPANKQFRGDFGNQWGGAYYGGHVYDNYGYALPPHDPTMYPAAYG

For series [13], the target named is T13, PK20770.1 (Cannabis sativa) (UniProt A0A7J6HVT3).
T13 sequence: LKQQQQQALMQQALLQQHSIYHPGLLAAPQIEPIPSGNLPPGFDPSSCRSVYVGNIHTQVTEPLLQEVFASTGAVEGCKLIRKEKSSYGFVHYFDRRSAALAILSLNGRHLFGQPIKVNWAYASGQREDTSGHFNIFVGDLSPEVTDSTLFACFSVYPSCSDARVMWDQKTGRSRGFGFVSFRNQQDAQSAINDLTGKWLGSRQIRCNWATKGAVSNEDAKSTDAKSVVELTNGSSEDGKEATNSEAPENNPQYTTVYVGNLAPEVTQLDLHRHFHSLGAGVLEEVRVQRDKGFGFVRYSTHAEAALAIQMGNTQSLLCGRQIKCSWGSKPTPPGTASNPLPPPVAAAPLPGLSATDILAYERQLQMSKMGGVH

Series [14] deals with T14, CPEB1 E201G;P348T;C438Y (Homo sapiens) (UniProt Q9BZB8).
T14 sequence: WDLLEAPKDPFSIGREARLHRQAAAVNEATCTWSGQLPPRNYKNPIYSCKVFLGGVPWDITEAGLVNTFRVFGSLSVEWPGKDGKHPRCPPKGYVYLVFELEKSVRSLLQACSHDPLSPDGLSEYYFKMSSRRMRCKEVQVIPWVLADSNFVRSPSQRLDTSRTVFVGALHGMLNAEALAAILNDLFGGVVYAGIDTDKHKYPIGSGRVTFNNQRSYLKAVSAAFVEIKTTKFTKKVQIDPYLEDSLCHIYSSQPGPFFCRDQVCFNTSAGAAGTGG

Data on 14 substances can be found in PMC12990809.

On to AACANA [RNAcompete motif RNCMPT00468], for which the binding signal (z-score (mean of top ten 7-mers)) in [1] amounted to 8.36. For the substance AACCAAA [RNAcompete motif RNCMPT00460], in [2], the binding signal (z-score (mean of top ten 7-mers)) worked out at 8.43. In [3], AANUUG [RNAcompete motif RNCMPT00432] came in with a binding signal (z-score (mean of top ten 7-mers)) of 17.4.

Regarding ACUAAC [RNAcompete motif RNCMPT00465], the binding signal (z-score (mean of top ten 7-mers)) in series [4] worked out at 12.4. ACUAACA [RNAcompete motif RNCMPT00467] had a binding signal (z-score (mean of top ten 7-mers)) in series [5] of 10.4. In series [6], AGACUCU [RNAcompete motif RNCMPT00470] registered a binding signal (z-score (mean of top ten 7-mers)) of 9.34. In series [7], GAGUGA [RNAcompete motif RNCMPT00431] gave a binding signal (z-score (mean of top ten 7-mers)) of 12.8. In series [8], GGACGANG [RNAcompete motif RNCMPT00433] displayed a binding signal (z-score (mean of top ten 7-mers)) of 7.68. For the substance GUAGGAA [RNAcompete motif RNCMPT00462], in [9], the binding signal (z-score (mean of top ten 7-mers)) worked out at 10.4. For UACUNAC [RNAcompete motif RNCMPT00469], the binding signal (z-score (mean of top ten 7-mers)) in [10] was determined as 7.13.

UUUUUCG [RNAcompete motif RNCMPT00466] returned a binding signal (z-score (mean of top ten 7-mers)) in [11] of 7.47. UUUUUU [RNAcompete motif RNCMPT00461]: in [12], the binding signal (z-score (mean of top ten 7-mers)) was determined as 7.67. The substance UUUUUU [RNAcompete motif RNCMPT00464] returned a binding signal (z-score (mean of top ten 7-mers)) in series [13] of 14.6. UUUUUUA [RNAcompete motif RNCMPT00434] displayed a binding signal (z-score (mean of top ten 7-mers)) in series [14] of 13.2.
